Measurements reported in the DeepSol protein solubility set.

Assay: soluble on expression in E. coli; label from the status in PepcDB or PDB records

Sequence | soluble on expression in E. coli
MSEELPNITTSEKKSFLQSLFSCLFQSEPKNREDLVEVIRDSLENELIDNDTKEMMEGVMEISELRVRDIMIPRPQIVYIDANLPLEACVDLIIESAHSRFPVILDDGKDNIQGMLLAKDLLKYLRSDSAPFDMQKMLRPAVIVPESKRVDRMLKEFRSERFHMAIVVDEFGAVSGLVTIEDILEQIVGDIEDEFDEEEIEPIRQLSRHTYAVSALTDIEKFNAVFATDFVDEEVDTIGGLVMQAFSHLPQRGEQVNLHGIDFKVTSADSRRLIQLRVTVSDEQLEQMERITDLEE | not soluble
MSLSYKKIAIITGANSGFGKEFLKLLINEEEITEIWAVARNKARLNQLVDEFGSKVKIFSKDLSKIEEVKEIGTFLSKENVCIKYLINNAGFAKFCSYNDLSIDESINMIDLNISAVVALGLICIPYMQKGSHIMNISSQASFQPLPYQNIYSSTKAFIRNYTRALNVELKSKGINAIAVCPGWMSTNLFKRGIVVAEKGTKNFPGIVSPDVVAKKALKDAKKNKDISVYGINTKSSHLLAKLLPQKMMMKVWLMQQHIKEGHHHHHH | soluble
IEERMNEYFNWLKQNYIFKELDSSTEITTPFKNHLNDFIRIYADTLPNNEICLSDDGLTINELEMLGIDINTKTRTKLIQNILNQFNLKLVDKEITADVKNESFAQSKHNLIQGILKIYDLTLTTKSNVTNIFYEEVFEFLYDQKIRGLAQVSVSGESGLKYSIDYIVSETKSQPEKLVNFTNNLDFNKITNEAYIYRDIKPNRPSRNKLEPIMLIIVNDVDHPINERAQTVAEHENLEILKWSNKSKIIETL | not soluble
MKTVMATGTFDIIHPGHGFFLEEARKLGGEDARLVVVLARDSTVRARKRTPIVGEKQRLEVVRMLKPVDEAYLGSETDMFEIVHRIKPDIIAIGPDQKFDVDELRDELRRRGLGCEVRRIEKYRDAELDSTCKIIKRIRSMEFDEDSLKNC | not soluble
MVERLEALFDALAELTGQRNAIDAKIVQIVAEIDRDGLWGATGARSISALVAWKTGASERNAKAIAAVAHRAEEFPRCVQGLGAGRLSLDQVGVIAEGAADGSDEHYAALASVATVSQLRKAISLEPKPEPEPKPDPRRSIRTNPGDGYTTYHITLPRLEAAKFDTALEASHEGLIARWEREQDPGDPAVPMPDLVDAFMALVETGWDREATRRPHGQHTAVAVHVDLKSKVAALHLGPLLGDDERRLLTCDATCEVWFELRGRVIGTGRATRTVNRRLRRALEHRDRCCVVPGCSATRGLHAHHLVHWEDGGLTEMANLVLLCPYHHRAHHRGLITITGPADQLTVTDDRGRLLTNQSLARTPLEHHHHHH | soluble
MGSSHHHHHHSSGRENLYFQGHMHALSPLALAALIVATAPAFADEAKKPGTVFKDCKDCPEMVVLPAGSFTMGTPDDEVGRQPDEGPLHDVTFAKPFAISRYQVTAGELDAYLKATGVKLADGDTRPGRECIAGKPRYQQGPRQPAVCVDYNDVKNYAAWLSKKTGKRYRMLSEAEREYGARAGSAGPFPFPFDEGKEYSIAKHANTYGASDGYNFTSPVGSFPPNAFGVYDMHGNVYEWVADCWHDHYNGAPSDGSAWMEEKCELVQIRGNDWGEPPIFSRSGNRNNAAPSDRGDWIGFRVAREL | soluble
MAEPLQPDPGAAEDAAAQAVETPGWKAPEDAGPQPGSYEIRHYGPAKWVSTSVESMDWDSAIQTGFTKLNSYIQGKNEKEMKIKMTAPVTSYVEPGSGPFSESTITISLYIPSEQQFDPPRPLESDVFIEDRAEMTVFVRSFDGFSSAQKNQEQLLTLASILREDGKVFDEKVYYTAGYNSPVKLLNRNNEVWLIQKNEPTKENE | soluble
MGSDKIHHHHHHMIPIEIDSGSGFCFGVVNAIRHAEKQLEKSSDKLYCLGDIVHNTLEVERLGKKGLETIDYDAFSRLRGAKVLLRAHGEPPEIYRMAGENGVTIIDATCPVVLRLQNKIKSRYEATRSLGAQVVIYGKRGHAEVNGLVGQTEGTAIVIESEEELDKIDYTRPVILFSQTTKSLEGFGQIIDSISTRMQPGVTFEHHDTICRQVANRIPHIGAFATAHELVFFVAGEKSSNGKVLFGHCLAANPRSIFISSPEVIVPDMLVPLPASIGICGATSTPRWQMEEVASHIKALL | not soluble
MSLHKRMKKKLILAAAGAMAVFSLAACSSGSKDIATMKGSTITVDDFYNQIKEQSTSQQAFSQMVIYKVFEEKYGDKVTDKDIQKNFDEAKEQVEAQGGKFSDALKQAGLTEKTFKKQLKQRAAYDAGLKAHLKITDEDLKTAWASFHPEVEAQIIQVASEDDAKAVKKEITDGGDFTKIAKEKSTDTATKKDGGKIKFDSQATTVPAEVKEAAFKLKDGEVSEPIAATNMQTYQTTYYVVKMTKNKAKGNDMKPYEKEIKKIAEETKLADQTFVSKVISDELKAANVKIKDDAFKNALAGYMQTESSSASSEKKESKSSDSKTSDTKTSDSEKATDSSSKTTESSSKEGGSHHHHHH | soluble
MFNQTQTVTYPATFLGAKKFKGEIDGSNIDTCSVLVATPLPAQSGNAVGFTAAQMKFGDSKNFSKLENLKYPCEVMVTVEMTSTGKGMVPSLIDFQVAEKPKG | not soluble
MGFAPVTPAAVETYDPDVDHDDESNGLDGFRVRSKRSGKFSGGYSDSPREVGDGYGVRSRARSNMKMYGGFKSEFDSDHDSGSGFGLKRKYNGNPKVSADFDADSDDEIVLVPKATRLRTHGKPSSGDFSHGSGGGFPLKSFGDRNFASHGFKPKNFSKPEPNFSQDLDYDDEFDDDRAEREGFNPRIQSSRSSSRVNGYSRKDGSYPRNTGASNGYGSSSRFKHEQMNAAAEVESDPIDEVVSSVKMLTEMFVRVENSKMEMMREMEKSRMEMELKHCQMMLESQQQIIGAFAEALSEKKSTNARRPVS | not soluble
MGHHHHHHSHMAFRQPNTKELKVIRKALSYYGSGDFLSHYALLVKEGEKKEVYGVSKELYGVIGELNPHYAGVKIGEVGRRFRFSLEGTFWLLRNSRNRVWVNERGEMLFLYGRDIFAGSVERASEFGENSIVFVCNRFDDVLGIGRSRHSSDELSNLPEDKVFVENLVDRGEYLRH | soluble
MNKANPKNIPPLAPKKVFIKTYGCQMNVYDSQRMTDSLSSKGYVATQTPNDADLILVNTCHIREKAAEKLYSDLGRLRVMRQERTPDKPLMVGVTGCVAQAEGSEILRRAPIVDLVIGPQMYHRLPDLLEQTKQGKKIVATEYAVEDKFAHLPPHNKRAVRKRGVSAFLTVQEGCDKFCTFCVVPYTRGAEISRSVEQITEEARQLIEAGVKEITLLGQNVNGWHGQNVNGKTWRLGDLLYHLAKLDGLKRLRYTTSHPRDMDDSLIAAHRDLDILMPYLHLPVQSGSDRILKAMNRQHKSIHYLQLIEKIRNARPDIAFSGDFIVGFPGETDEDFEETIKLIKQVEYSSAYSFKYSPRPGTVGATMKNHVEEAVKDARLQHLQVLLLEQQNAFLRSKIGQTTDVLIEKAGRHSGQMVGRSPWLLPVVVDTQASTGTVIPIHIKNTSSNSFVGEMTNM | not soluble
MLLEAIFHEAKGSYAYPISETQLRVRLRAKKGDVVRCEVLYADRYASPEEELAHALAGKAGSDERFDYFEALLECSTKRVKYVFLLTGPQGEAVYFGETGFSAERSKAGVFQYAYIHRSEVFTTPEWAKEAVIYQIFPERFANGDPSNDPPGTEQWAKDARPRHDSFYGGDLKGVIDRLPYLEELGVTALYFTPIFASPSHHKYDTADYLAIDPQFGDLPTFRRLVDEAHRRGIKIILDAVFNHAGDQFFAFRDVLQKGEQSRYKDWFFIEDFPVSKTSRTNYETFAVQVPAMPKLRTENPEVKEYLFDVARFWMEQGIDGWRLDVANEVDHAFWREFRRLVKSLNPDALIVGAIWHDASGWLMGDQFDSVMNYLFRESVIRFFATGEIHAERFDAELTRARMLYPEQAAQGLWNLLDSHDTERFLTSCGGNEAKFRLAVLFQMTYLGTPLIYYGDEIGMAGATDPDCRRPMIWEEKEQNRGLFEFYKELIRLRHRLASLTRGNVRSWHADKQANLYAFVRTVQDQHVGVVLNNRGEKQTVLLQVPESGGKTWLDCLTGEEVHGKQGQLKLTLRPYQGMILWNGR | soluble
MGSDKIHHHHHHMELPVVVQQALGDNAPGVSFRSVSQIDTGHLLRMVLLSDDQGNLQAICRRNDMLDLEALNKRLGRDLRMMQRREQVRVRQKAGLQELPALPSLTGWPTVVDRRVDELEAVALELGEQDLGLMMPAEDFRQLTAKAARHDFAVDTANISVNLDNHAADRDQLHSAIKRFTGLRIQQRLEDTLELPPLPETAQRIIHLRVNPNAVMGDLVDVVESDPSLAAQVVSWASSSFYAAAGRVHSVHDAVSRVLGFDLVMNLAMGLALGRALKHPQDHPDGYVDYWQQAIWQAQSAGILASMMPRGQRPLFGLAYLAGLLHNFGHLVLAQVFPPHFKLVCRSLEVSPHIDSSVIEHYLLGITREQIAAQLMENWGMPDEVTLAIRYQKNPAYDGPHNVYARLLWLGRQLLTERGVALGAGESATQAVYDELGLDRELVQEQFDELVRRKDSIMAMAGMMSQGG | not soluble
MKRVFVTVGTTSFDDLIARVVAHDSVQILKNLGYNQLVLQIGRGTVVPEPFSTESFTLDVYRYKDSLKEDLQQADLVISHAGAGSCLESLEKGKPLVVVVNEKLMNNHQFELAKQLHREGHLFYCTCSMLPELLQSMDLSTLKCYPPGQPEKFSAFLDKVVGLQK | soluble
MQGKDNYQEQQEINSTDEEGMIFQLADTTIQACNAAAERIIGYKNEQILGKTPFKPPWQIVHEDGTIFTPETVPPIVALQTGKPCKNVVMGLYQPTGQLVWLLLNSQPLFQTNKSTPYAVVTTFTDFTKVKCRQSRSDACITNNKKLIVTWNQDQAVEISPNTDKQKLNQPVAEPISDDCTKAFLSMQNHILELIATGNSLSEILEKLAQSIEAQLAEVFCSIMLLNDTGTKLYPGVSSSLPEKYIQELKNGVPVGADVGSCGTSAYTKQTVIVSDIASDHKWVKYRDLTLTNNLKACWSTPILDSQGHVLGTFALYYPTVRIPQKSDLQLIERASHLAGVAIERQRWQLALQQSEYQLRLMTETIPQQVWTAQPNGLVDYYNQRWCDFTGKTQEQLKTESWEQIIHPEDLPKVEELWAKAVQTGSDYEVETRMLSGSGEYHWILGQARPLRNQQGQIVKWYGTNTDITDHIQAREALRESELNFRTLADTMPQMIWTAKGDGWLEYCNQRWLDYTGMTLEETQGWGWQPVLHPDDAQICIDIWSESVRTGQNYQIEYRLRRARDGQYRWHLGRAFPLRNQKGQIIKWFGSCTDIDDHKRSEEALRNALQEKQAAYEAAETANRVKDEFLAILSHELRTPLNPILGWSQLLKTGKLDKDKTDEALKSIERNAKLQVDLIDDLLDVSRILRGKLTLNVTTVNLADIISAALETMSLAASVKQIAVQTLIEPNIGKVRGDPARLQQIVWNLLSNAIKFTPQGGEVVVQLEQIGSMAHIIVSDQGKGINRKFLPHIFEHFRQEDGSTTRKFGGLGLGLAIVRHLVELHGGTVEADSPGEGQGTTLKVILPLISSLPVTVTNGQFEDVALSLKGIKILVVDDDVDSLAFVKVVLELYEATVTTAASAPEALQIGVQLKPDVLISDIGMPEMDGYELLRRMRALSSDLGGDIPAVSKAIPKAIALTAFAGELDEQQAMAAGFQIHIPKPVEPEALAAAVAQVLKINV | not soluble
MLYVLNKCNGLESVEIIHYNNETTDMKELVENPIIVNCKQVTISTVGGMYGSRELLMNFQIERLISGDSAIGTRFRQGSYEPDHVMSLVNSCFKDRVVNFQDHQGLRLRTDNLAKQILVKKCCRDDFEFEWGVSCRVIPSNLQDIDFEEDWPIWTDIDSDEDCDYSSDDEYEYQYNSDSD | not soluble
GMHLKEKITTIIQGQRTGVLSTVRNDKPHSAFMMFFHEDFVLYVATDRQSKKITDIENNPNVHVLLGREGKKLDEDYIEVEGLASIEEDSTLKNKFWNNSLKRWLLRPEDPNYVLIKINPDTIYYIDGAGTTEPEFLRL | soluble
